Experimental findings from PMC3471852 are described below.

This experiment has as its target β-arrestin-2 (UniProt P32121). In words: anti-HA co-IP after DSS cross-linking, anti-Flag blot. The following applies: reference: wild type C3aR.

“C3a receptor (C3aR) (from UniProt Q16581) MT2 (T463A/S465A/T466A/S470A)”: for the setting “sites T463,S465,T466,S470”, the other: percent decrease vs wild type was found to be 74%.

With “C3a receptor (C3aR) (from UniProt Q16581) MT7 (S459A plus MT1 and MT2 substitutions)”, the “binding against the reference” value (sites S459,T463,S465,T466,S470,S475,S479,T480,T481) is recorded as “lost”.
